# Measurements reported in ChEMBL document CHEMBL2074082, “Characterization of the monocarboxylate transporter 1 expressed in Xenopus laevis oocytes by changes in cytosolic pH” (Biochem J, 1998).
# B1: Monocarboxylate transporter 1 (Rattus norvegicus), P53987 (protein)
# chain: MPPAIGGPVGYTPPDGGWGWAVVVGAFISIGFSYAFPKSITVFFKEIEIIFSATTSEVSWISSIMLAVMYAGGPISSILVNKYGSRPVMIAGGCLSGCGLIAASFCNTVQELYFCIGVIGGLGLAFNLNPALTMIGKYFYKKRPLANGLAMAGSPVFLSTLAPLNQAFFGIFGWRGSFLILGGLLLNCCVAGSLMRPIGPQQGKVEKLKSKESLQEAGKSDANTDLIGGSPKGEKLSVFQTVNKFLDLSLFTHRGFLLYLSGNVVMFFGLFTPLVFLSNYGKSKHFSSEKSAFLLSILAFVDMVARPSMGLAANTRWIRPRVQYFFAASVVANGVCHLLAPLSTTYVGFCIYAGVFGFAFGWLSSVLFETLMDLVGPQRFSSAVGLVTIVECCPVLLGPPLLGRLNDMYGDYKYTYWACGVILIIAGLYLFIGMGINYRLVAKEQKAEEKKRDGKEDETSTDVDEKPKKTMKETQSPAPLQNSSGDPAEEESPV
# Tests used:
# Format in all cases: functional, cell-based
# Conditions in all cases: Oocyte
# [1] = substrate: CC(C)CC(=O)C(=O)O; experiment: (§1) TP_TRANSPORTER: change in intracellular pH(pHi)value in Xenopus laevis oocytes
# [2] = substrate: CC(C)C(=O)C(=O)O; experiment: as §1
# [3] = substrate: C[C@@H](O)C(=O)O; experiment: as §1
# [4] = substrate: CC(=O)C(=O)O; experiment: as §1
protein,measurement,setting,value
B1,Km,[1],670 µM
same,Km,[2],1250 µM
same,Km,[3],3500 µM
same,Km,[4],1010 µM
